From patent US20050227302A1, “Induction of apoptosis via ARTS-IAP complexes” (priority 2004, published 2005) come the findings set out here.

Where a SMILES comes first, the peptide text is derived from it. The star is where a group is joined. Cbz = O=C(OCc1ccccc1)*

In assay [1] the test system is XIAP. Kind of assay: Co-immunoprecipitation of ARTS-XIAP complexes in COS-7 cells. It is filed as cell-based, African Green Monkey. The procedure: (§1) Protein extracts were prepared with lysis buffer (150 mM NaCl, 50 mM Tris-HCl (pH 8), 1% NP-40, 0.5% deoxycholate acid) with protease inhibitors. Lysates containing equal amounts of total protein were pre-cleared overnight with 1 mg mouse IgG (Sigma) coupled with protein A/G-Sepharose mix (Amersham Biosciences) and the beads centrifuged. Supernatants were immuno-precipitated using 5 μl of anti-ARTS antibody for 4 h, anti-XIAP antibody, rabbit anti-myc antibody, or mouse IgG (negative control). Protein A/G Sepharose beads were added for 1 hour and washed four times with PBS. Antibodies against XIAP (as above), Myc (Santa Cruz), or anti-ARTS (NT) antibodies directed against the common N′ terminus of ARTS and H5 (ProSci Incorporated) were used for Western blot.

The test system of assay [2] is COS-7 cells. The assay can be described thus: Immunofluorescence of ARTS and XIAP localization in COS-7 cells. Format: cell-based, African Green Monkey. Particulars: COS-7 cells, 50 μM etoposide for 16 hour, with BOC. The protocol:
Cells were fixed with 4% paraformaldehyde in PBS for 20 min at room temperature, washed with PBS, permeabilized with 0.5% Triton-X in PBS for 5 min, and incubated with primary antibodies for 2 hours at room temperature (rabbit polyclonal anti-ARTS (1:20,000; Sigma), monoclonal anti-ARTS, and/or monoclonal anti-XIAP (1:500; used in subsequent Examples). Cells were washed three times with PBS/0.1% Triton-X and incubated with FITC conjugated anti-mouse and Rhodamin^TX-conjugated anti-rabbit secondary antibodies (Jackson). Images were analyzed using a confocal laser microscope (Zeiss LSM 510). Mitochondria were visualized with MitoTracker® Red CMXRos (Molecular Probes/Invitrogen).
For caspase inhibition, we added […] of BOC-Asp(Ome)CH2F (Enzyme Systems Products) one hour prior to addition of the apoptotic agents.

The subject of assay [3] is XIAP. Kind of assay: XIAP protein levels by Western blot in COS-7 cells. Format: cell-based, African Green Monkey. The procedure: as §1
(§2) Stably transfected COS-7 pE-ARTS cells were generated using the pEF1-IRES vector (Hobbs S et al, Biochem Biophys Res Commun 252: 368-372, 1998). The construct contains an EF-1 promoter followed by a multi cloning site, an EMC (Encephalomyocarditis virus) internal ribosome entry sites (IRES), and a puromycin resistance gene. AU5-tagged ARTS was inserted into the XhoI site downstream of the EF-1 promoter. The construct was stably transfected into COS-7 cells. The cells were maintained in medium containing 4 μg/ml puromycin.
Cells were treated for 2 hours with […] of the proteasome inhibitor (MG132, Calbiochem) prior to induction of apoptotis.
In general terms: In western blotting, separated proteins are transferred to a membrane and probed.

The target of assay [4] is T1, Myc epitope-tagged wild-type XIAP (Homo sapiens (Human), UniProt P98170 1-497).
T1 construct: Expressed by transient transfection in COS-7 cells and used as cell lysate; The construct came from Dr. Colin S. Duckett; also called myc-tagged XIAP; mycXIAP
T1 sequence (P98170 whole entry): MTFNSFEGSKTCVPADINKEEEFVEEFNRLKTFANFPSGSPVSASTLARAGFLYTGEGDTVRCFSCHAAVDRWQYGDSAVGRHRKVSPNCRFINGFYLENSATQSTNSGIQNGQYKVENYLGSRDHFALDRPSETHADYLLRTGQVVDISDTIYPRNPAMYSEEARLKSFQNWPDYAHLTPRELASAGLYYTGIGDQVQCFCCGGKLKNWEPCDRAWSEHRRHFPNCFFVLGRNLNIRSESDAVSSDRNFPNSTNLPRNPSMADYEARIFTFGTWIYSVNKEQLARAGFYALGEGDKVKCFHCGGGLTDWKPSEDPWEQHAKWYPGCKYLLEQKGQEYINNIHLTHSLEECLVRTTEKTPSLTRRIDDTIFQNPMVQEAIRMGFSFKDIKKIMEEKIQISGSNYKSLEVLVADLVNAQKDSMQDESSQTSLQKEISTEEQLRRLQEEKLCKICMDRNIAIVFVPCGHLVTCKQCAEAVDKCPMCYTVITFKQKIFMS
The assay can be described thus: co-IP with agarose-anti-myc beads from co-transfected COS-7 cells, Western blot. The procedure:
FIG. 4. ARTS binding to XIAP is specific and related to its apoptotic function. A. In-vivo binding of ARTS to XIAP was tested using co-IP with anti-ARTS, anti-XIAP or mouse IgG as a negative control, followed by anti-XIAP Western blot. B. Lysates of COS-7 cells co-transfected with pcDNA-mycXIAP and AU5-ARTS, AU5-ARTSmGTP or H5 DC were co-immunoprecipitated using agarose-anti-myc beads, followed by Western blot analysis with rabbit anti-myc and anti-ARTS. […] COS-7 cells were transiently transfected with AU5-ARTS, AU5-ARTSmGTP, AU5-ARTSDC or AU5-PNUTL2, and percent apoptosis determined. […] P-values (Anova) were 0.03 for non-treated cells, compared to 0.000004 for 1 hr and 0.00001 for 3 hr STS treatment.
Protein extracts were prepared with lysis buffer (150 mM NaCl, 50 mM Tris-HCl (pH 8), 1% NP-40, 0.5% deoxycholate acid) with protease inhibitors. Lysates containing equal amounts of total protein were pre-cleared overnight with 1 mg mouse IgG (Sigma) coupled with protein A/G-Sepharose mix (Amersham Biosciences) and the beads centrifuged. Supernatants were immuno-precipitated using 5 μl of anti-ARTS antibody for 4 h, anti-XIAP antibody, rabbit anti-myc antibody, or mouse IgG (negative control). Protein A/G Sepharose beads were added for 1 hour and washed four times with PBS. […]

Another assay concerns the target T2, GST-XIAP fusion protein (Homo sapiens (Human), UniProt P98170 1-497).
T2 construct: also called pGEX-XIAP; not shown: glutathione-S-transferase (GST) of a pGEX vector
Kind of assay: GST-XIAP pull-down from lysate of transfected COS-7 cells, Western blot with anti-AU5. The protocol:
FIG. 3. ARTS specifically binds XIAP in vitro. In vitro binding was tested using a GST pull-down assay. A-B. COS-7 cells were transiently transfected with myc-tagged XIAP. GST pull-down was performed using GST-ARTS and Western blot using anti-XIAP and (A) and anti myc (B). C. COS-7 cells were transiently transfected with AU5-ARTS, AU5-ARTSDC or AU5-H5. GST pull down was performed using GST-XIAP and Western blot with anti-AU5. Binding to glutathione beads alone served as a negative control.
Cells were lysed in RIPA buffer (150 mM NaCl, 50 mM Tris-HCl (pH 8), 1% NP-40, 0.1% SDS, 0.5% deoxycholate acid containing protease inhibitors (mini Complete, Roche)). Samples were divided into two tubes; one was rotated for 4 h at 4° C. with GST-ARTS fusion protein coupled with the glutathione beads, or GST-XIAP fusion protein. The second tube was incubated with glutathione beads alone (negative control). Samples were centrifuged at 4000-RPM at 4° C. for 4 minute and washed five times in lysis buffer, then boiled in sample buffer for 5 minutes to elute bound proteins Proteins were separated on 12.5% SDS-PAGE gel followed by Western blot analysis using monoclonal anti-ARTS antibody (Sigma), monoclonal anti-XIAP antibody (BD Transduction Laboratories) or monoclonal anti-myc antibody (Clontech). […]

In assay [5] the target is T3, XIAP (Homo sapiens, UniProt P98170).
T3 construct: made in house; host or cells: bacteria (pGEX-XIAP plasmid obtained from Dr. Colin S. Duckett)
T3 sequence (P98170 whole entry): as above
Kind of assay: GST pull-down assay of ARTS and XIAP. Format: binding. Particulars: lysates of COS-7 cells transfected with AU5-tagged construct; Western blot anti-AU5. An excerpt:
For the glutathione-S-transferase (GST)-pull down assays, ARTS was subcloned into the pGEX 4T™ (Pharmacia Biotech) construct; GST-ARTS fusion protein was generated by Polymerase Chain Reaction (PCR) using the following primers: • BamHI-5′-[…]-3′ (SEQ ID No: 4) and • EcoRI-5′ […]-3′ (SEQ ID No: 5) and cloned into BamHI and EcoRI sites in pGEX 4T. Preparation of Beads
For in vitro binding studies, recombinant GST-ARTS or GST-XIAP fusion proteins were purified from bacteria. After sonication, 0.1% Triton X-100 and protease inhibitors (Mini-Complete™, Roche) were added to the bacterial extract followed by 10,000 rotations per minute (RPM) centrifugation. Supernatants of bacterial extracts were collected and incubated in the presence of glutathione-Sepharose 4B beads (Amersham Biosciences) for 30 minute at 4° C. The beads were washed three times.
Cells were lysed in RIPA buffer (150 mM NaCl, 50 mM Tris-HCl (pH 8), 1% NP-40, 0.1% SDS, 0.5% deoxycholate acid containing protease inhibitors (mini Complete, Roche)). Samples were divided into two tubes; one was rotated for 4 h at 4° C. with GST-ARTS fusion protein coupled with the glutathione beads, or GST-XIAP fusion protein. The second tube was incubated with glutathione beads alone (negative control). Samples were centrifuged at 4000-RPM at 4° C. for 4 minute and washed five times in lysis buffer, then boiled in sample buffer for 5 minutes to elute bound proteins Proteins were separated on 12.5% SDS-PAGE gel followed by Western blot analysis using monoclonal anti-ARTS antibody (Sigma), monoclonal anti-XIAP antibody (BD Transduction Laboratories) or monoclonal anti-myc antibody (Clontech).

The subject of assay [6] is COS-7 cells. Kind of assay: Apoptosis assays (TUNEL, anti-H2A.X) in COS-7 cells. Format: cell-based, African Green Monkey. The settings on record: transiently transfected COS-7 cells, staurosporine (STS) for 1 or 3 hours. Also on record: induction of apoptosis (TUNEL): dose or concentration left out as unconfirmed. The protocol:
Apoptotic cells were detected using the anti-H2A.X antibody (Upstate; Paull, et al., 2000) or TUNEL. For TUNEL assays, COS-7 cells were transiently transfected with AU5-ARTS, AU5-ARTSΔC, AU5-ARTSmGTP and AU5-H5. Twenty-four hours after transfection, the cells were treated with staurosporine (STS) ([…]) for 1 or 3 hours, then fixed and permeabilized. Apoptosis levels were determined using the TUNEL. In situ™ cell death detection TMR kit (Roche) according to the manufacturer's protocol. All slides were coded and experiments were performed in a blind manner.
as §2

T2 sequence (P98170 whole entry, the tested form may be a part): as the sequence (P98170 whole entry) above

Regarding `COC(=O)CC(NC(=O)OC(C)(C)C)C(=O)CF` (centres unmarked) [BOC, BOC-Asp(Ome)CH2F, reference compound], in the assay with XIAP [1] (COS-7 cells treated with staurosporine in the presence of caspase inhibitor BOC), the “formation of ARTS-XIAP complexes” value is “did not inhibit, and in fact slightly increased”. The “nuclear translocation of ARTS” value with COS-7 cells [2] was “nuclear translocation of ARTS was blocked”. Besides, the “sensitivity of the reduction of XIAP protein to caspase inhibition” value with XIAP [3] (COS-7 cells treated with staurosporine with or without BOC) is given as “not sensitive”.

Take `CC(C)C[C@@H](C=O)NC(=O)[C@H](CC(C)C)NC(=O)[C@H](CC(C)C)NC(=O)OCc1ccccc1` [MG132, reference compound] (Cbz-Leu-Leu-Leu-aldehyde): the “ARTS-induced reduction of XIAP levels” value in the assay on XIAP [3] (cells treated for 2 hours with 20 mM MG132 prior to induction of apoptosis, data not shown) is reported as “blocked ARTS-induced reduction of XIAP levels”.

B1: AU5-H5 (other, human, UniProt O43236-1 1-478, looked up)
chain: MDRSLGWQGNSVPEDRTEAGIKRFLEDTTDDGELSKFVKDFSGNASCHPPEAKTWASRPQVPEPRPQAPDLYDDDLEFRPPSRPQSSDNQQYFCAPAPLSPSARPRSPWGKLDPYDSSEDDKEYVGFATLPNQVHRKSVKKGFDFTLMVAGESGLGKSTLVNSLFLTDLYRDRKLLGAEERIMQTVEITKHAVDIEEKGVRLRLTIVDTPGFGDAVNNTECWKPVAEYIDQQFEQYFRDESGLNRKNIQDNRVHCCLYFISPFGHGLRPLDVEFMKALHQRVNIVPILAKADTLTPPEVDHKKRKIREEIEHFGIKIYQFPDCDSDEDEDFKLQDQALKESIPFAVIGSNTVVEARGRRVRGRLYPWGIVEVENPGHCDFVKLRTMLVRTHMQDLKDVTRETHYENYRAQCIQSMTRLVVKERNRNKLTRESGTDFPIPAVPPGTDPETEKLIREKDEELRRMQEMLHKIQKQMKENY
notes: Expressed in transfected COS-7 cells; The construct came from Dr. Seong-Jin Kim; also called pEF1-AU5-H5; H5 septin protein; not shown: AU5 tag
As for B1, the binding result (in assay [4]; in the assay with GST-XIAP fusion protein) was “no binding” each time.

B2: AU5-ARTS ΔC (other)
chain: MIKRFLEDTTDDGELSKFVKDFSGNASCHPPEAKTWASRPQVPEPRPQAPDLYDDDLEFRPPSRPQSSDNQQYFCAPAPLSPSARPRSPWGKLDPYDSSEDDKEYVGFATLPNQVHRKSVKKGFDFTLMVAGESGLGKSTLVNSLFLTDLYRDRKLLGAEERIMQTVEITKHAVDIEEKGVRLRLTIVDTPGFGDAVNNTECWKPV
notes: 1-206 is 274 minus 68; also called AU5-ARTSDC; not shown: AU5 tag at the N' terminus
For B2, the binding result with GST-XIAP fusion protein is on record as “no binding”.

B3: ARTSΔC: ARTS construct that lacks 68 amino acids at the unique ARTS C′-terminal sequence (protein)
chain: B2 chain
modifications: left off: small tags and cut ends
For the molecule B3, in the assay with XIAP [5], the “binding to GST-XIAP” value is given as “Neither ARTSΔC nor H5 were able to bind to XIAP”. Moreover, in the assay with COS-7 cells [6], the “induction of apoptosis (TUNEL)” value is “did not induce apoptosis”.

B4: AU5-ARTSmGTP (other)
chain: MIKRFLEDTTDDGELSKFVKDFSGNASCHPPEAKTWASRPQVPEPRPQAPDLYDDDLEFRPPSRPQSSDNQQYFCAPAPLSPSARPRSPWGKLDPYDSSEDDKEYVGFATLPNQVHRKSVKKGFDFTLMVAGESGLENPTLVNSLFLTDLYRDRKLLGAEERIMQTVEITKHAVDIEEKGVRLRLTIVDTPGFGDAVNNTECWKPVAEYIDQQFEQYFRDESGLNRKNIQDNRVHCCLYFISPFGHGYGPSLRLLAPPGAVKGTGQEHQGQGCH
notes: not shown: AU5 tag at the N' terminus
Consider B4, for which, in assay [4], the binding result is given as “no binding”.

B5: ARTSmGTP: ARTS mutant, three amino acids (G K S with E N P) replaced at the GTP binding site (protein)
chain: B4 chain
modifications: left off: small tags and cut ends
For B5, the “binding to XIAP in co-IP” value in the assay with XIAP [1] (COS-7 cells co-transfected with pcDNA-mycXIAP and AU5-tagged construct) is “Neither of these mutants bound to XIAP”.
